Two molecules from US20250270518A1, “NOVEL LUCIFERASES WITH IMPROVED PROPERTIES” (SVAR Life Science AB, priority 2021, published 2025) can be followed below.

Data set [1] has as its system HEK293 cells. In words: Transient transfection of HEK293 cells, luciferase genes under constitutive CMV promoter, luciferase activity in supernatant (FIG. 3A). The data set is classed as cell-based, human. The conditions noted are these: 18 hours at 37° C., QuantiLuc Gold, compared with native Metridia longa luciferase and other luciferases. The procedure: FIG. 3A illustrates the response of HEK293 cells following transient transfection of cells with the novel Svar vector encoding the luciferases genes indicated, each under the control of a constitutive CMV promoter, and co-transfection of cells with firefly luciferase under the control of a constitutive thymidine kinase (TK) promoter. Luciferase activity was quantified in the cell supernatant after 18 hours incubation of cells at 37° C. using a commercially available coelenterazine based “glo” substrate (QuantiLuc Gold, Invivogen). The cells were then lysed and firefly luciferase activity was quantified with BrightGlo (Promega).
A series of deletion mutants of the 5′ coding region of the native Metridia longa luciferase gene were designed in silico, synthetized in vitro and tested in transient transfection experiments. The nucleotide sequence of the native Metridia longa gene luciferase gene is illustrated in FIG. 1 and the amino acid sequence in FIG. 2.
A series of random mutation were introduced into the coding sequence of the native Metridia longa luciferase gene using oligonucleotides carrying a single or multiple mutations (FIG. 4). The oligonucleotides were synthetized in vitro and tested in transient transfection experiments in human the HEK293 cell line originally derived from human embryonic kidney cells grown in tissue culture (ATCC Catalogue CRL-1573).

Data set [2] concerns NFkB recognition sequence chimeric promoter in HEK293 cells. As to the kind of experiment: Transient transfection of HEK293 cells, luciferase genes under NFkB responsive chimeric promoter, treated with TNF (FIG. 3B). The note with it: compared with native Metridia longa luciferase gene; for luminescence / luciferase activity, relative light units (RLU): 100 ng/ml TNF for 6 hours at 37° C. The data set is classed as cell-based, human. The procedure:
FIG. 3B illustrates the response of HEK293 cells following transient transfection of cells with the novel Svar vector encoding either the wild type Metridia longa luciferase gene, or the Svar luciferase 1 or the Svar luciferase 2 genes each under the control of a chimeric promoter consisting of a SV40 minimal promoter and a 6-fold tandem repeat of the canonical NFkB recognition sequence and treated with 100 ng/ml of TNF[…] for 6 hours at 37° C. prior to quantification of the luciferase signal using a commercially available coelenterazine based “glo” substrate (QuantiLuc Gold, Invivogen).

The test system of data set [3] is HEK293 cells. In words: Rate of loss of luciferase activity in supernatant of transiently transfected HEK293 cells (FIG. 6). The data set is classed as cell-based, human. The note with it: CMV promoter, room temperature, QuantiLuc Gold, compared with wild type Metridia longa luciferase. An excerpt: FIG. 6A illustrates the rate of loss of luciferase activity in the supernatant of HEK293 cells following transient transfection of cells with the luciferases genes indicated, each under the control of a constitutive CMV promoter, and quantification of luciferase activity at increasing times at room temperature using a commercially available coelenterazine based “glo” substrate (QuantiLuc, Gold Invivogen).

Data set [4] relates to NFkB recognition sequence chimeric promoter in HEK293 cells. In words: Clonal HEK293 cell line stably transfected with NFkB responsive reporter gene, increasing TNF (FIG. 7). The data set is classed as cell-based, human. The conditions noted are these: stable HEK293 clone, increasing TNF for 6 hours at 37° C., QuantiLuc Gold. From the text: FIG. 7 illustrates the response of a clonal cell line of HEK293 cells stably transfected with a reporter gene comprising the sequence set forth in SEQ ID NO: 1 under the control of a chimeric promoter consisting of a SV40 minimal promoter and a 6-fold tandem repeat of the canonical NFkB recognition sequence treated with increasing concentrations of TNF[…].
HEK293 cells were transfected with the Svar luciferase Luc-1 gene under the control of a chimeric promoter consisting a SV40 minimal promoter and a 6-fold tandem repeat of the canonical NFkB recognition sequence and stable clones were isolated and characterized.
On the technique in general: A reporter such as luciferase makes a cellular process visible.

Data set [5] deals with NFkB recognition sequence chimeric promoter in K562 cells. In words: K562 clonal cell lines stably transfected with NFkB responsive reporter gene, increasing TNF (FIG. 8). The data set is classed as cell-based, human. The conditions noted are these: stable K562 clones, increasing TNF for 6 hours at 37° C., compared with firefly luciferase under same promoter. An excerpt: FIG. 8 illustrates a comparison of the response of K562 cells stably transfected with either the luciferase gene comprising the sequence set forth in SEQ ID NO: 1 under the control of a chimeric promoter consisting of a SV40 minimal promoter and a 6-fold tandem repeat of the canonical NFkB recognition sequence and K562 cells stably transfected with the firefly luciferase gene comprising the open reading frame encoding the firefly luciferase protein under the control of the same NFkB responsive promoter and treatment of cells with increasing concentrations of TNF[…] for 6 hours at 37° C.
K562 cells originally derived from a chronic myelogenous leukemia (ATCC, catalogue number CCL-243) were transfected with either the Svar luciferase Luc-1 gene or firefly luciferase gene each under the control of a chimeric promoter consisting a SV40 minimal promoter and a 6-fold tandem repeat of the canonical NFkB recognition sequence. Stable clones were isolated and characterized. The clonal cell lines were treated with increasing concentrations of TNF[…] for 6 hours at 37° C. (FIG. 8).

In data set [6] the test system is transfected mammalian cells. In words: Comparison of luciferase properties with other luciferases (Table 2). The data set is classed as cell-based. The note with it: relative to other native or engineered luciferases reported in the literature. From the text:
FIG. 12 illustrates Table 2 showing a comparison of the properties of the luciferase encoded by the sequence set forth in SEQ ID NO: 1 and SEQ ID NO:2 and comprising the amino acid sequence encoded by the sequence set forth in AA1 and AA2 relative to those of other native or engineered luciferases reported in the literature.

Positions count from the first letter of the chain named. “Also recorded” adds a separate entry of the source.

B1: SVAR Luc-1: Engineered luciferase derived from Metridia longa luciferase, amino acid sequence SEQ ID NO: AA1, encoded by SEQ ID NO: 1 (protein)
chain: MEAEAERGKSPGKKLPLAVIMEIEANAFKAGCTRGCLICLSKIKCTAKMKVYIPGRCHDYGGDKKTGQAGIVGAIVDIPEISGFKEMEPMEQFIAQVDRCASCTTGCLKGLANVKCSELLKKWLPDRCASFADKIQKEVHNIKGMAGDR
modifications: NO.1 (1)..(450) SEQ ID NO.1
B1: the “luciferase activity / light output (brightness), relative light units (RLU)” value in the data set on HEK293 cells [1] is “increased light output (brightness)”. Besides, the “luminescence / luciferase activity, relative light units (RLU)” value in data set [2] is reported as “increased luminescence including increased light output (brightness)”; in data set [2] (listed as Svar luciferase 1), “enhanced luciferase activity relative to the wild type gene”. Further, the “dynamic range relative to control samples in the absence of the pharmacology active substance” value in data set [2] is “higher dynamic range”. Further, in the data set with HEK293 cells [3], the “signal stability and/or signal duration” value was “increased signal stability and/or signal duration”. Also, the “relative light units (RLU) and fold induction relative to control not treated with TNF” value in data set [4] is “high levels of both relative light units (RLU) and fold induction”. Moreover, in data set [5], the “relative light units (RLU) values” is “markedly higher relative light units (RLU) values”. Further, in data set [6], the “toxicity for transfected mammalian cells” value is listed as “absence of toxicity”.

B2: SVAR Luc-2: Engineered luciferase derived from Metridia longa luciferase, isoleucine 106 to valine, SEQ ID NO: AA2, encoded by SEQ ID NO: 2 (protein)
chain: B1 chain with I94V
modifications: NO.2 (1)..(450) SEQ ID NO.2
As for B2, the “luciferase activity / light output (brightness), relative light units (RLU)” value in the data set with HEK293 cells [1] is “improved activity relative to the native Metridia longa luciferase; also recorded: equivalent or slightly reduced activity relative to SVAR Luc-1 luciferase”; in the data set with HEK293 cells [1] (listed as Svar luciferase 2), “increased light output (brightness)”. Also, the “luminescence / luciferase activity, relative light units (RLU)” value in data set [2] is “increased luminescence including increased light output (brightness)”; in data set [2] (listed as Svar luciferase 2) it was “enhanced luciferase activity relative to the wild type gene”. Besides, the “dynamic range relative to control samples in the absence of the pharmacology active substance” value in data set [2] is recorded as “higher dynamic range”. Moreover, the “signal stability and/or signal duration” value in the data set on HEK293 cells [3] is listed as “increased signal stability and/or signal duration”.
